Results on 1 substance are retold here after patent US20040253224.

The series deals with Bovine submaxillary gland mucin (Sigma).

Consider “mouse AMCase (acidic mammalian chitinase)”, for which the “degradation of mucin on 7.5% SDS-PAGE with silver staining after overnight incubation at 37 C, pH 5.0 (125 ug mucin, 500 ng mouse AMCase)” value was “the mucin was degraded by treatment with the AMCase” and the “flow rate of the mucin solution, measured in a vertically positioned glass pipette, after incubation with AMCase” value is on record as “increased with almost a factor of 2”.
